Source: US20120329707A1 (INDIANA UNIVERSITY RESEARCH AND TECHNOLOGY, published 2012)
Numbered stars: 1 amine (or outer) side, 2 acyl side, 3 side chain; on linkers, the order of the positions; unused ones are H or OH. Square brackets hold non-standard residues; d marks the D form. Primed or numbered codes have the meaning given here. Side chains are listed from the residue outwards. Ends that are not written are not given here. * marks the point of attachment. 40K‑TE PEG = 40 kDa PEG covalently bound via thioether, formed by reaction of the free thiol of the peptide (Cys side chain) with an iodoacetic-functionalized PEG; 40K‑TE PEG″ = 40 kDa PEG bound to Cys via thioether made from an iodoacetyl-functionalised PEG; benzoylpropionyl = benzoylpropionyl acyl group, O=C(CCC(=O)*)c1ccccc1; Acetyl(1-adamantyl) = O=C(CC12CC3CC(CC(C3)C1)C2)*; γGlu = O=C(O)[C@H](CCC(=O)[*:2])N[*:1]; Desaminohistidyl = O=C(CCc1c[nH]cn1)*; Palmitoyl = CCCCCCCCCCCCCCCC(=O)*; Aib = CC(C)(N)C(=O)O

B1: peptide of SEQ ID NO: 49 (peptide)
peptide: H[dS]QGTFTSDK(benzoylpropionyl)SKYLDERAAQDFVQWLLDGGPSSGAPPPS-NH2
modifications: N-terminus assumed
SMILES: CC(C)C[C@H](NC(=O)[C@H](CC(C)C)NC(=O)[C@H](Cc1c[nH]c2ccccc12)NC(=O)[C@H](CCC(N)=O)NC(=O)[C@@H](NC(=O)[C@H](Cc1ccccc1)NC(=O)[C@H](CC(=O)O)NC(=O)[C@H](CCC(N)=O)NC(=O)[C@H](C)NC(=O)[C@H](C)NC(=O)[C@H](CCCNC(=N)N)NC(=O)[C@H](CCC(=O)O)NC(=O)[C@H](CC(=O)O)NC(=O)[C@H](CC(C)C)NC(=O)[C@H](Cc1ccc(O)cc1)NC(=O)[C@H](CCCCN)NC(=O)[C@H](CO)NC(=O)[C@H](CCCCNC(=O)CCC(=O)c1ccccc1)NC(=O)[C@H](CC(=O)O)NC(=O)[C@H](CO)NC(=O)[C@@H](NC(=O)[C@H](Cc1ccccc1)NC(=O)[C@@H](NC(=O)CNC(=O)[C@H](CCC(N)=O)NC(=O)[C@@H](CO)NC(=O)[C@@H](N)Cc1c[nH]cn1)[C@@H](C)O)[C@@H](C)O)C(C)C)C(=O)N[C@@H](CC(=O)O)C(=O)NCC(=O)NCC(=O)N1CCC[C@H]1C(=O)N[C@@H](CO)C(=O)N[C@@H](CO)C(=O)NCC(=O)N[C@@H](C)C(=O)N1CCC[C@H]1C(=O)N1CCC[C@H]1C(=O)N1CCC[C@H]1C(=O)N[C@@H](CO)C(N)=O
B2: peptide of SEQ ID NO: 56 (peptide)
peptide: H[dA]QGTFTSDK([γGlu-Palmitoyl])SKYLDERAAQDFVQWLLDT-NH2
B3: peptide of SEQ ID NO: 48 (peptide)
peptide: H[dS]QGTFTSDK([γGlu-Acetyl(1-adamantyl)])SKYLDERAAQDFVQWLLDT-NH2
modifications: N-terminus assumed
SMILES: CC(C)C[C@H](NC(=O)[C@H](Cc1ccc(O)cc1)NC(=O)[C@H](CCCCN)NC(=O)[C@H](CO)NC(=O)[C@H](CCCCNC(=O)CC[C@H](NC(=O)CC12CC3CC(CC(C3)C1)C2)C(=O)O)NC(=O)[C@H](CC(=O)O)NC(=O)[C@H](CO)NC(=O)[C@@H](NC(=O)[C@H](Cc1ccccc1)NC(=O)[C@@H](NC(=O)CNC(=O)[C@H](CCC(N)=O)NC(=O)[C@@H](CO)NC(=O)[C@@H](N)Cc1c[nH]cn1)[C@@H](C)O)[C@@H](C)O)C(=O)N[C@@H](CC(=O)O)C(=O)N[C@@H](CCC(=O)O)C(=O)N[C@@H](CCCNC(=N)N)C(=O)N[C@@H](C)C(=O)N[C@@H](C)C(=O)N[C@@H](CCC(N)=O)C(=O)N[C@@H](CC(=O)O)C(=O)N[C@@H](Cc1ccccc1)C(=O)N[C@H](C(=O)N[C@@H](CCC(N)=O)C(=O)N[C@@H](Cc1c[nH]c2ccccc12)C(=O)N[C@@H](CC(C)C)C(=O)N[C@@H](CC(C)C)C(=O)N[C@@H](CC(=O)O)C(=O)N[C@H](C(N)=O)[C@@H](C)O)C(C)C
B4: peptide of SEQ ID NO: 60 (peptide)
peptide: H[Aib]QGTFTSDK([γGlu-Palmitoyl])SKYLD[Aib]RAAQDFVQWLMKTK[dE]-OH
B5: peptide of SEQ ID NO: 59 (peptide)
peptide: H[Aib]QGTFTSDK(Palmitoyl)SKYLDERRA[Aib]DFVQWLMNT-NH2
modifications: N-terminus assumed
SMILES: CCCCCCCCCCCCCCCC(=O)NCCCC[C@H](NC(=O)[C@H](CC(=O)O)NC(=O)[C@H](CO)NC(=O)[C@@H](NC(=O)[C@H](Cc1ccccc1)NC(=O)[C@@H](NC(=O)CNC(=O)[C@H](CCC(N)=O)NC(=O)C(C)(C)NC(=O)[C@@H](N)Cc1c[nH]cn1)[C@@H](C)O)[C@@H](C)O)C(=O)N[C@@H](CO)C(=O)N[C@@H](CCCCN)C(=O)N[C@@H](Cc1ccc(O)cc1)C(=O)N[C@@H](CC(C)C)C(=O)N[C@@H](CC(=O)O)C(=O)N[C@@H](CCC(=O)O)C(=O)N[C@@H](CCCNC(=N)N)C(=O)N[C@@H](CCCNC(=N)N)C(=O)N[C@@H](C)C(=O)NC(C)(C)C(=O)N[C@@H](CC(=O)O)C(=O)N[C@@H](Cc1ccccc1)C(=O)N[C@H](C(=O)N[C@@H](CCC(N)=O)C(=O)N[C@@H](Cc1c[nH]c2ccccc12)C(=O)N[C@@H](CC(C)C)C(=O)N[C@@H](CCSC)C(=O)N[C@@H](CC(N)=O)C(=O)N[C@H](C(N)=O)[C@@H](C)O)C(C)C
B6: peptide of SEQ ID NO: 51 (peptide)
peptide: H[Aib]QGTFTSDYSKYLDEKRA[Aib]EFVC(40K‑TE PEG)WLL[Aib]GGPSSGAPPPS-NH2
B7: peptide of SEQ ID NO: 16 (peptide)
peptide: H[Aib]QGTFTSDYSKYLDEKRA[Aib]EFVC(40K‑TE PEG″)WLLDE-NH2
B8: peptide of SEQ ID NO: 21 (peptide)
peptide: Ac-H[dS]QGTFTSDK([γGlu-Palmitoyl])SKYLDERAAQDFVQWLLDT-NH2
B9: peptide of SEQ ID NO: 22 (peptide)
peptide: H[Aib]QGTFTSDK([γGlu-γGlu-Palmitoyl])SKYLD[Aib]RAAQDFVQWLMDGRG-NH2
modifications: N-terminus assumed
SMILES: CCCCCCCCCCCCCCCC(=O)N[C@@H](CCC(=O)N[C@@H](CCC(=O)NCCCC[C@H](NC(=O)[C@H](CC(=O)O)NC(=O)[C@H](CO)NC(=O)[C@@H](NC(=O)[C@H](Cc1ccccc1)NC(=O)[C@@H](NC(=O)CNC(=O)[C@H](CCC(N)=O)NC(=O)C(C)(C)NC(=O)[C@@H](N)Cc1c[nH]cn1)[C@@H](C)O)[C@@H](C)O)C(=O)N[C@@H](CO)C(=O)N[C@@H](CCCCN)C(=O)N[C@@H](Cc1ccc(O)cc1)C(=O)N[C@@H](CC(C)C)C(=O)N[C@@H](CC(=O)O)C(=O)NC(C)(C)C(=O)N[C@@H](CCCNC(=N)N)C(=O)N[C@@H](C)C(=O)N[C@@H](C)C(=O)N[C@@H](CCC(N)=O)C(=O)N[C@@H](CC(=O)O)C(=O)N[C@@H](Cc1ccccc1)C(=O)N[C@H](C(=O)N[C@@H](CCC(N)=O)C(=O)N[C@@H](Cc1c[nH]c2ccccc12)C(=O)N[C@@H](CC(C)C)C(=O)N[C@@H](CCSC)C(=O)N[C@@H](CC(=O)O)C(=O)NCC(=O)N[C@@H](CCCNC(=N)N)C(=O)NCC(N)=O)C(C)C)C(=O)O)C(=O)O
B10: peptide of SEQ ID NO: 19 (peptide)
peptide: H[dS]QGTFTSDK([γGlu-Palmitoyl])SKYLDERAAQDFVQWLLDGRG-NH2
B11: peptide of SEQ ID NO: 20 (peptide)
peptide: [Desaminohistidyl][dS]QGTFTSDK([γGlu-Palmitoyl])SKYLDERAAQDFVQWLLDT-NH2
B12: peptide of SEQ ID NO: 61 (peptide)
peptide: HXQGTFTSDKSKYLDERAAQDFVQWLMDT
modifications: aib at 2; Lys 10 with γEγEC16; C-terminal amide
B13: peptide of SEQ ID NO: 58 (peptide)
peptide: H[Aib]QGTFTSDK(Palmitoyl)SKYLDSRRA[Aib]DFVQWLMNT-NH2
modifications: N-terminus assumed
SMILES: CCCCCCCCCCCCCCCC(=O)NCCCC[C@H](NC(=O)[C@H](CC(=O)O)NC(=O)[C@H](CO)NC(=O)[C@@H](NC(=O)[C@H](Cc1ccccc1)NC(=O)[C@@H](NC(=O)CNC(=O)[C@H](CCC(N)=O)NC(=O)C(C)(C)NC(=O)[C@@H](N)Cc1c[nH]cn1)[C@@H](C)O)[C@@H](C)O)C(=O)N[C@@H](CO)C(=O)N[C@@H](CCCCN)C(=O)N[C@@H](Cc1ccc(O)cc1)C(=O)N[C@@H](CC(C)C)C(=O)N[C@@H](CC(=O)O)C(=O)N[C@@H](CO)C(=O)N[C@@H](CCCNC(=N)N)C(=O)N[C@@H](CCCNC(=N)N)C(=O)N[C@@H](C)C(=O)NC(C)(C)C(=O)N[C@@H](CC(=O)O)C(=O)N[C@@H](Cc1ccccc1)C(=O)N[C@H](C(=O)N[C@@H](CCC(N)=O)C(=O)N[C@@H](Cc1c[nH]c2ccccc12)C(=O)N[C@@H](CC(C)C)C(=O)N[C@@H](CCSC)C(=O)N[C@@H](CC(N)=O)C(=O)N[C@H](C(N)=O)[C@@H](C)O)C(C)C

Legend:
Assay in all cases: cell-based or functional assay
GLP-1 receptor = molecular target: GLP-1 receptor
glucagon receptor = molecular target: glucagon receptor
GIP receptor = molecular target: T1, GIP receptor
T1 sequence (P48546 whole entry, species assumed, looked up): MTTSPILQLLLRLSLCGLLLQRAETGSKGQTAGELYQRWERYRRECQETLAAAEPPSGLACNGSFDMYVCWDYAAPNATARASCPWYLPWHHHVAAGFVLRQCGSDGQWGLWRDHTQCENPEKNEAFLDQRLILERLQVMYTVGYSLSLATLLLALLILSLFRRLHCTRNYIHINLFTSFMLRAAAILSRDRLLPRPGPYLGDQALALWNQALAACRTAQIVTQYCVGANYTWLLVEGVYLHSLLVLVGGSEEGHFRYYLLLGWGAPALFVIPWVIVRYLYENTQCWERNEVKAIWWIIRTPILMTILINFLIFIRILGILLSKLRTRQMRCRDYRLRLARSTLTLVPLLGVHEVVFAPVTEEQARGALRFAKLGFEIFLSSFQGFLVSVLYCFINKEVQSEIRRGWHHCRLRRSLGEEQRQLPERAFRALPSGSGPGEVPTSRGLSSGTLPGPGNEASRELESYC

Binder	EC50 (nM) at GLP-1 receptor (GLP-1 receptor)	EC50 (nM) at glucagon receptor (glucagon receptor)	EC50 (nM) at GIP receptor (GIP receptor)
B1	0.01 nM	0.063 nM	–
B2	0.02 nM	0.006 nM	1.64 nM
B3	0.039 nM	0.026 nM	–
B4	0.033 nM	4.6 nM	147 nM
B5	0.01 nM	0.051 nM	7.48 nM
B6	0.062 nM	2.04 nM	–
B7	0.487 nM	0.563 nM	465 nM
B8	0.009 nM	0.005 nM	4.5 nM
B9	0.002 nM	0.005 nM	2.37 nM
B10	0.002 nM	0.004 nM	0.812 nM
B11	0.004 nM	0.006 nM	1.38 nM
B12	0.004 nM	0.009 nM	0.676 nM
B13	0.025 nM	0.09 nM	35.7 nM
